Assay results: article PMC3214623

Tests used:
[1] = target: human beta-2 microglobulin (human) (UniProt P61769); assay: radioligand binding
[2] = target: porcine beta-2 microglobulin (pig) (UniProt Q07717); assay: radioligand binding
Sequence of UniProt Q07717 (Q07717 21-118): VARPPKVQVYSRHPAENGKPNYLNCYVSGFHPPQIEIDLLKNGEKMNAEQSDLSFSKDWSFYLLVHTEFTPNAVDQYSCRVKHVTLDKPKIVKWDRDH

Sequence of UniProt P61769 (P61769 21-119): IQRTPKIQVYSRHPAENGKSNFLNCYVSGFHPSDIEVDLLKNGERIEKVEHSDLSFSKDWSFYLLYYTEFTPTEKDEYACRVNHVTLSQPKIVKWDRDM

Row | Substance | affinity (half-saturation of the heavy chain titration) [1] [nM] | affinity (half-saturation of the heavy chain titration) [2] [nM]
1 | chimeric MHC-I heavy chain HHP (HLA-A*11:01 α1α2, SLA-1*0401 α3) (domain or fragment) | 1.19 | 0.774
2 | HLA-A*11:01 heavy chain, residues 1-275 (HHH) (domain or fragment) | 1.07 | 2.11
